# Experimental data as given in patent publication US20240294668A1 (SHANGHAI SYNVIDA BIOTECHNOLOGY, published 2024).
# B1: FIXa-4 antibody (antibody, V domains shown)
# VH: QVTLKESGPGILKPSQTLSLTCSFSGFSLNTPGMGVGWIRQPSGKGLEWLAHIWWDDDKYYNPSLKSQLTISKDTSRNQVFLKITSVDTADTATYYCARSDDVSYALDYWGQGTSVTVSS
# VL: DIQMTQSPASLSASVGETVTITCRASENIDSYLAWYQQKQGKSPQLLVYNAKTLADGVPSRFSGSGSGTQFSLKIDSLQPEDFGSHYCQHHDGTTWTFGGGTKLEIK
# notes: A subtype test is described, but the isotype and constant regions are not reported; also called anti-FIXa monoclonal antibody; FIX-4 antibody
# Legend:
# [1] = target: T1, human FIXa (activated coagulation factor IX) (human, UniProt P00740 47-191; P00740 227-461); test: ELISA, FIXa antigen coated on the plate, anti-mouse secondary antibody, OD450
# T1 construct: The docking used only the catalytic domain (PDB 3LC3); also called FIXa antigen; FIXa protein
# T1 sequence (P00740 47-191 limits assumed, chain 1 of 2): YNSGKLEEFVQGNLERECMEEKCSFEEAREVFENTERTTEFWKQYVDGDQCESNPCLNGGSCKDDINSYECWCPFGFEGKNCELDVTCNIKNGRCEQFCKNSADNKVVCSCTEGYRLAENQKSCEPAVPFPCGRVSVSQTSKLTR
# T1 sequence (P00740 227-461 limits assumed, chain 2 of 2): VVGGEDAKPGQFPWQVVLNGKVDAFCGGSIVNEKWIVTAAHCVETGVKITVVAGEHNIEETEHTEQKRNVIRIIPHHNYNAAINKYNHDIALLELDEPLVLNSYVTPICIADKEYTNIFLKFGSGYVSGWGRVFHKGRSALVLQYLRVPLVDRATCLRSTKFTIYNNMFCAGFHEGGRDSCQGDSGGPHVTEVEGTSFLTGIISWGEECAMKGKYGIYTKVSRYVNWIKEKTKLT
# Procedure: After culturing hybridoma cells for 7 days, ELISA was used for detecting positive antibodies. 0.1 μg/100 μl of FIXa antigen was coated on an ELISA plate (CORNING), incubated at 37° C. for 1.5 h; then blocked with 2% BSA at 37° C. for 1 h; and then primary antibody, the supernatant of cultured cells, was added and incubated at 37° C. for 1.5 h. After that, mouse secondary antibody was added and incubated at 37° C. for 30 min. Finally, chromogenic substrate TMB (Thermo) was added for 5 min at room temperature in dark, then stop solution 2M H₂SO₄ was added to terminate the reaction. Antibody-positive cell lines were screened according to the absorbance value measured at 450 nm by a spectrophotometer (Thermo Fisher scientific company). Then the cell lines were cultured for cloning in a semi-solid medium ([…] company), with single clones selected into 96-well plates after 7 days. […]
# Following the instructions provided in the Sigma company's subtype detection kit, the antigen was coated, blocked, incubated with primary antibody (0.1 μg/100 μl), incubated with isotype-specific reagent at room temperature for 30 minutes, incubated with secondary antibody (R-antiGoat-HRP) for chromogen development, with stop solution added to terminate the reaction, and finally the absorbance was measured at 450 nm. […]
# [2] = target: T1, human FIXa (activated coagulation …); test: cell-based or functional assay
binder,measurement,setting,value
B1,EC50,[1],0.0947 µg/mL
same,"activated partial thromboplastin time (APTT), IC50",[2],7.71 µg/mL
same,"activated partial thromboplastin time (APTT), fold over control",[2],3.5 times
